Consider one molecule from US12624396B2, “Methods for alleviating facioscapulohumeral dystrophy (FSHD) by an antisense nucleic acid molecule inhibiting the expression of double homeobox 4 (DUX4)” (Fred Hutchinson Cancer Center, priority 2010, dated 2026).

In data set [1] the test system is control human muscle cells. The note with it: cultured human skeletal muscle cells; Geng et al. 2011; cited from earlier work.
The test system of data set [2] is endogenous retroelement MaLR transcripts. Nature of the data set: MaLR expression analysis after lentiviral transduction of primary human myoblasts. Format: cell-based. The note with it: lentiviral transduction into primary human myoblasts; real-time RT-PCR relative to RPL13a; FIG. 17E.
The test system of data set [3] is DUX4-fl target genes in FSHD muscle cells. Put plainly: Knockdown of DUX4-fl targets in FSHD muscle cells by lentiviral DUX4-s. It counts as cell-based, human. The note with it: FSHD cultured muscle cells transduced with lenti-DUX4-s, 48 hours of differentiation; real-time RT-PCR; FIG. 21. As for the experimental part:
Simultaneously, cells were transduced by lentivirus carrying DUX4-s or GFP along with 8 μg/mL polybrene. Cells were washed and changed to plain differentiation media after 24 hours. Cells were harvested for RNA after 48 hours of differentiation.
One microgram of total RNA was reverse transcribed into first strand cDNA in a 20 uL reaction using SuperScript III (Invitrogen) and digested with 1 U of RNase H (Invitrogen) for 20 min at 37° C. cDNA was diluted and used for quantitative PCR with iTaq SYBR Green supermix with ROX (Bio-Rad). The relative expression levels of target genes were normalized to those of ribosomal protein L13A (RPL13A) by 2^ΔCt. Undetermined values were equated to zero. Standard deviations from the mean of the ΔCt values were calculated from triplicates. PCR primers used for detecting the transcripts of the selected genes are listed in Supplementary methods.
Real-time RT-PCR quantitation of three DUX4 target genes, (A) PRAMEF1, (B) RFPL2 and (C) MBD3L2 in FSHD cultured muscle cells transduced with lenti-GFP or lenti-DUX4-s or untransduced. Abundance of targets was calculated relative to internal standard RPL13a and then set as percentages relative to the untransduced condition. Values represent mean+/−SEM from three independent experiments.
A general note: Real-time PCR tracks product formation cycle by cycle.

Data set [4] relates to control human muscle cells. Nature of the data set: Expression of DUX4-s in control human muscle cells, apoptosis/toxicity. It counts as cell-based. The note with it: 48 hrs, data not shown. The text has this: Both the mRNA analysis and the immunodetection indicate that approximately 0.1% of FSHD muscle nuclei express DUX4 mRNA and protein. This could represent transient bursts of expression or stochastic activation of expression that leads to cell death, or both. […] When DUX4 is expressed in control human muscle cells by lenti-viral delivery, the DUX4 protein is distributed relatively homogeneously during the first 24 hrs and then aggregates in nuclear foci at 48 hrs when the cells are undergoing apoptosis (data not shown). These DUX4 nuclear foci associated with apoptosis are present in the nuclei of FSHD muscle cultures.

Data set [5] concerns DUX4 binding sites from TRIM48 and ZSCAN4. Nature of the data set: Luciferase assay, pGL3-promoter reporter with TRIM48 or ZSCAN4 DUX4 binding sites in RD cells. It counts as cell-based, human. The following applies: RD cells co-transfected with DUX4-s alone; FIG. 16. The protocol:
(§1) Transient DNA transfections of RD cells were performed using SuperFect (Qiagen) according to manufacturer specifications. Briefly, 3×10^5 cells were seeded per 35 mm plate the day prior to transfection. […] Cells were lysed 24 h post-transfection in Passive Lysis Buffer (Promega). Luciferase activities were quantified using reagents from the Dual-Luciferase Reporter Assay System (Promega) following manufacturer's instructions. Light emission was measured using BioTek Synergy2 luminometer. Luciferase data are given as the averages ±SD of at least triplicates.
The 31 bp DUX4 binding site from TRIM48 (SEQ ID NO:96) or ZSCAN4 (SEQ ID NO:97) were inserted into the luciferase reporter construct upstream of the SV40 promoter, as shown in FIG. 16A.
(A) reporter construct structure; Genomic fragments near the TRIM48 (B) and ZSCAN4 genes (C) containing DUX4 binding sites were cloned into pGL3-promoter reporter vector (schematic, top) and transfected into human rhabdomyoscaroma cell line RD. […] TRIM48mut and ZSCAN4mut, mutated binding sites. Luciferase activity was set relative to control.

Data set [6] concerns DUX4 core binding motif oligos (CSF1R, TRIM48). Put plainly: Electromobility shift assay with in vitro translated protein. The arrangement: species or system human. The note with it: radiolabeled CSF1R and TRIM48 oligos, FIG. 15D. The protocol: EMSA was performed with ^32P-labeled 31-bp oligonucleotides from endogenous genomic sequences containing the putative DUX4 binding site as probes (sequences below; only forward shown). Radiolabeled probes were incubated with in vitro translated protein generated from pCS2-DUX4-fl or pCS2-DUX4-s^2 vectors using the TNT SP6 Coupled Wheat Germ Extract System (Promega) according to manufacturer's instructions. To obtain supershift of protein-DNA complexes, 0.1 μg of E14-3 anti-DUX4 rabbit monoclonal antibody was added to the mixtures. For competition experiments, excess unlabeled probes of either wild-type or mutant sequences were included in the binding reaction. The gels were prepared and run as previously described (Knoepfler et al., Nucleic Acids Res 27:3752-3761 (1999)).
Supershift with DUX4 antibody E14-3 confirmed the specificity of binding. […] (d) DUX4-s also binds the same core motifs; left, CSF1R; right, TRIM48. Supershift with anti-DUX4 N-terminus antibody E14-3 confirmed specificity of binding.

Data set [7] addresses T1, DUX4-fl (Homo sapiens, UniProt Q9UBX2).
T1 construct: expressed in transfected cells; host or cells: human rhabdomyosarcoma cell line RD, transient transfection with pCS2-DUX4-fl
Nature of the data set: Luciferase assay, ZSCAN4 1.9 kb enhancer/promoter reporter, co-transfection of DUX4-fl and DUX4-s. Format: cell-based. The note with it: equal amounts of DUX4-fl and DUX4-s co-transfected in RD cells; FIG. 17C. As for the experimental part: as §1
To determine whether DUX4 binding might directly regulate transcription of select genes, we cloned the 1.9 kb enhancer and promoter region of the ZSCAN4 gene that includes four DUX4 binding sites as follows: (DUX4 binding sites are underlined.)
The 1.9kb enhancer and promoter region of the ZCAN4 gene that includes the four DUX4 binding sites from ZCAN4 (SEQ ID NO:100) were inserted upstream of the luciferase reporter construct (pGL3 basic luciferase vector) as shown in FIG. 17A. […] Real-time RT-PCR quantitation is reported relative to internal standard RPL13a. All data represent mean+/−SD from at least triplicates.

Entries after “also recorded” stand apart in the source; their conditions may differ.

T1 sequence (Q9UBX2 whole entry): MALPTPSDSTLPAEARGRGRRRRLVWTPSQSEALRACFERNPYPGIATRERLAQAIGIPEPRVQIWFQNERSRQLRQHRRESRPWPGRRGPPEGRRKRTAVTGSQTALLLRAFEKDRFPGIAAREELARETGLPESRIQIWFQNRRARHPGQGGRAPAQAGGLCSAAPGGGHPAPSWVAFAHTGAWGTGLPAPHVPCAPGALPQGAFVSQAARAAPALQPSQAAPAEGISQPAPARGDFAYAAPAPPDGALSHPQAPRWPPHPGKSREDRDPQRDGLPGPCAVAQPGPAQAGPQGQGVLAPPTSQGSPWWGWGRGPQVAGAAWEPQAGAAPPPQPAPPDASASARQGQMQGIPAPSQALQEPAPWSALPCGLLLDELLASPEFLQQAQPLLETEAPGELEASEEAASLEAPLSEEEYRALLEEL

B1: DUX4-s: short splice form of DUX4 (SEQ ID NO:68) keeping the N-terminal double-homeobox domains, lacking the C-terminal domain; expressed from vector (protein, listed as Homo sapiens)
chain: MALPTPSDSTLPAEARGRGRRRRLVWTPSQSEALRACFERNPYPGIATRERLAQAIGIPEPRVQIWFQNERSRQLRQHRRESRPWPGRRGPPEGRRKRTAVTGSQTALLLRAFEKDRFPGIAAREELARETGLPESRIQIWFQNRRARHPGQGGRAPAQV
In the case of B1, the “toxicity of forced over-expression” value in data set [1] was “not toxic”. In data set [2], the “upregulation of endogenous MaLR transcripts” value is listed as “No upregulation”. Further, the “endogenous expression of DUX4-fl target genes (PRAMEF1, RFPL2, MBD3L2)” value in data set [3] is “inhibited the endogenous expression of the target genes; also recorded: blocks expression of DUX4-fl target genes”. Further, in data set [4], the induction of apoptosis result was “does not induce apoptosis”. The “activation of luciferase expression” value in data set [5] was “did not activate expression”. In addition, the “binding to DUX4 core binding site (EMSA)” value in data set [6] is on record as “specifically binds the same core binding site as DUX4-fl”. Moreover, the “effect on DUX4-fl induced luciferase activity” value in data set [7] is given as “diminishes luciferase activity; also recorded: interfered with the activity of DUX4-fl”.
